Patent US20150203577A1 (Chugai, published 2015)
Substitutions are numbered along the chain they refer to.

T1: mouse FcγRIII extracellular domain, C-terminal His tag (mouse, UniProt P08508 31-215)
T1 construct: also called mFcγRIII; mFcgRIII
T1 chain: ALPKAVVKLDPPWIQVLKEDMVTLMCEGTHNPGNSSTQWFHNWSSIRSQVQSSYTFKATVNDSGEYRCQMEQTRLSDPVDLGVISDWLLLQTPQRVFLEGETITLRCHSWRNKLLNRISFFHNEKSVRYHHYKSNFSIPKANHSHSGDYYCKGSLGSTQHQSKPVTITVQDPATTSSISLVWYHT

T2: mouse FcγRII extracellular domain, C-terminal His tag (mouse, UniProt P08101 30-210)
T2 construct: also called mFcγRII; mFcgRII
T2 sequence: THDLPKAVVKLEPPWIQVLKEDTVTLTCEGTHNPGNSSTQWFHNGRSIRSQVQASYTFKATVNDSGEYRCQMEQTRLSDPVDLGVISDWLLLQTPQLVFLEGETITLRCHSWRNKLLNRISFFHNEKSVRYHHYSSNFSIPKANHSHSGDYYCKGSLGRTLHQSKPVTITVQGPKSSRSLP

B1: H237-MB821/MRAL-k0 (antibody, mouse IgG1, kappa)
heavy: QVQLQESGPGLVKPSETLSLTCAVSGHSISHDHAWSWVRQPPGEGLEWIGFISYSGITNYNPSLQGRVTISRDNSKNTLYLQMNSLRAEDTAVYYCARSLARTTAMDYWGEGTLVTVSSAKTTPPSVYPLAPGSAAQTNSMVTLGCLVKGYFPEPVTVTWNSGSLSSGVHTFPAVLQSDLYTLSSSVTVPSSTWPSETVTCNVAHPASSTKVDKKIVPRDCGCKPCICEPNEVELVFIFPPKPKDVLTITLTPKVTCVVVDISKDDPEVQFSWFVDDVEVHTAQTQPREEQFNSTFRSVSELPIMHQDWLNGKEFKCRVMSAAFPAPIERTISKTKGRPKAPQVYTIPPPKEQMAKDKVSLTCMITDFFPEDITVEWQWNGQPAENYKNTQPIMDTDGSYFVYSKLNVQKSNWEAGNTFTCSVLHEGLHNHHTEKSLSHSPGK
light: not shown
notes: copies: 2 + 2
B2: H237-MB831/MRAL-k0 (antibody, mouse IgG1, kappa)
heavy: B1 heavy with M320N, P327F
light: not shown
notes: copies: 2 + 2
B3: H237-MB826/MRAL-k0 (antibody, mouse IgG1, kappa)
heavy: B1 heavy with M320N, A323G, P327F, R330K
light: not shown
notes: copies: 2 + 2
B4: H237-MB860/MRAL-k0 (antibody, mouse IgG1, kappa)
heavy: B1 heavy with M320N, A322D, A323G, E329Y
light: not shown
notes: copies: 2 + 2
B5: H237-MB828/MRAL-k0 (antibody, mouse IgG1, kappa)
heavy: B1 heavy with M320N, A323G, E329Y, R330K
light: not shown
notes: copies: 2 + 2
B6: H237-MB850/MRAL-k0 (antibody, mouse IgG1, kappa)
heavy: B1 heavy with M320N, A322D, A323G, E329Y, R330K
light: not shown
notes: copies: 2 + 2
B7: H237-MB867/MRAL-k0 (antibody, mouse IgG1, kappa)
heavy: B1 heavy with L235I, K264D, M320N, A322D, A323G, R330K
light: not shown
notes: copies: 2 + 2
B8: H237-MB825/MRAL-k0 (antibody, mouse IgG1, kappa)
heavy: B1 heavy with M320N, A322D, E329Y, R330K
light: not shown
notes: copies: 2 + 2
B9: H237-MB829/MRAL-k0 (antibody, mouse IgG1, kappa)
heavy: B1 heavy with M320N, A323G
light: not shown
notes: copies: 2 + 2
B10: H237-MB827/MRAL-k0 (antibody, mouse IgG1, kappa)
heavy: B1 heavy with M320N, A323G, P327Y, R330K
light: not shown
notes: copies: 2 + 2
B11: H237-MB846/MRAL-k0 (antibody, mouse IgG1, kappa)
heavy: B1 heavy with K264D, M320N, A322D, A323G, R330K
light: not shown
notes: copies: 2 + 2
B12: H237-MB859/MRAL-k0 (antibody, mouse IgG1, kappa)
heavy: B1 heavy with M320N, A322D, A323G, P327Y
light: not shown
notes: copies: 2 + 2
B13: H237-MB849/MRAL-k0 (antibody, mouse IgG1, kappa)
heavy: B1 heavy with M320N, A322D, A323G, P327Y, R330K
light: not shown
notes: copies: 2 + 2
B14: H237-MB822/MRAL-k0 (antibody, mouse IgG1, kappa)
heavy: B1 heavy with M320N, A322D, A323G, R330K
light: not shown
notes: copies: 2 + 2
B15: H237-MB869/MRAL-k0 (antibody, mouse IgG1, kappa)
heavy: B1 heavy with L235I, K264D, M320N, A322D, A323G, E329Y, R330K
light: not shown
notes: copies: 2 + 2
B16: H237-MB852/MRAL-k0 (antibody, mouse IgG1, kappa)
heavy: B1 heavy with Q291L, M320D, A322D, A323G, R330K
light: not shown
notes: copies: 2 + 2
B17: H237-MB824/MRAL-k0 (antibody, mouse IgG1, kappa)
heavy: B1 heavy with M320N, A322D, P327Y, R330K
light: not shown
notes: copies: 2 + 2
B18: H237-MB856/MRAL-k0 (antibody, mouse IgG1, kappa)
heavy: B1 heavy with M320D, A322D, A323G, P327Y, R330K
light: not shown
notes: copies: 2 + 2
B19: H237-MB835/MRAL-k0 (antibody, mouse IgG1, kappa)
heavy: B1 heavy with K264D, M320N, R330K
light: not shown
notes: copies: 2 + 2
B20: H237-MB823/MRAL-k0 (antibody, mouse IgG1, kappa)
heavy: B1 heavy with M320N, A322D, P327F, R330K
light: not shown
notes: copies: 2 + 2
B21: H237-MB834/MRAL-k0 (antibody, mouse IgG1, kappa)
heavy: B1 heavy with M320N, E329Y
light: not shown
notes: copies: 2 + 2
B22: H237-MB870/MRAL-k0 (antibody, mouse IgG1, kappa)
heavy: B1 heavy with L235I, K264D, M320N, A322D, A323G
light: not shown
notes: copies: 2 + 2
B23: H237-MB858/MRAL-k0 (antibody, mouse IgG1, kappa)
heavy: B1 heavy with M320D, A322D, A323G
light: not shown
notes: copies: 2 + 2
B24: H237-MB857/MRAL-k0 (antibody, mouse IgG1, kappa)
heavy: B1 heavy with M320D, A322D, A323G, E329Y, R330K
light: not shown
notes: copies: 2 + 2
B25: H237-MB847/MRAL-k0 (antibody, mouse IgG1, kappa)
heavy: B1 heavy with Q291L, M320N, A322D, A323G, R330K
light: not shown
notes: copies: 2 + 2
B26: H237-MB833/MRAL-k0 (antibody, mouse IgG1, kappa)
heavy: B1 heavy with M320N, P327Y
light: not shown
notes: copies: 2 + 2
B27: H237-MB863/MRAL-k0 (antibody, mouse IgG1, kappa)
heavy: B1 heavy with K264D, M320N, A322D, A323G, E329Y, R330K
light: not shown
notes: copies: 2 + 2
B28: H237-MB866/MRAL-k0 (antibody, mouse IgG1, kappa)
heavy: B1 heavy with L235I, M320N, A322D, A323G, R330K
light: not shown
notes: copies: 2 + 2
B29: H237-MB862/MRAL-k0 (antibody, mouse IgG1, kappa)
heavy: B1 heavy with K264D, M320N, A322D, A323G, P327Y, R330K
light: not shown
notes: copies: 2 + 2
B30: H237-MB854/MRAL-k0 (antibody, mouse IgG1, kappa)
heavy: B1 heavy with Q291L, M320N, A322D, A323G, E329Y, R330K
light: not shown
notes: copies: 2 + 2
B31: H237-MB848/MRAL-k0 (antibody, mouse IgG1, kappa)
heavy: B1 heavy with M320D, A322D, A323G, R330K
light: not shown
notes: copies: 2 + 2
B32: H237-MB851/MRAL-k0 (antibody, mouse IgG1, kappa)
heavy: B1 heavy with M320N, A322D, A323G
light: not shown
notes: copies: 2 + 2
B33: H237-MB868/MRAL-k0 (antibody, mouse IgG1, kappa)
heavy: B1 heavy with L235I, K264D, M320D, A322D, A323G, R330K
light: not shown
notes: copies: 2 + 2

How the values were obtained:
[1] = target: T1, mouse FcγRIII extracellular domain, …; assay: SPR (Biacore T200), antibody captured on Protein L, mFcγR analyte
[2] = target: T2, mouse FcγRII extracellular domain, …; assay: as above

Binder | Kd [1] | relative mFcγRIII-binding activity (mIgG1 = 1) [1] | Kd [2] | relative mFcγRII-binding activity (mIgG1 = 1) [2]
B1 | 625 nM | 0.5 fold vs H237-mIgG1/MRAL-k0 | 8.6 nM | 24.4 fold vs H237-mIgG1/MRAL-k0
B2 | 716 nM | 0.4 fold vs H237-mIgG1/MRAL-k0 | 9.4 nM | 22.3 fold vs H237-mIgG1/MRAL-k0
B3 | 829 nM | 0.3 fold vs H237-mIgG1/MRAL-k0 | 11.4 nM | 18.5 fold vs H237-mIgG1/MRAL-k0
B4 | 379 nM | 0.7 fold vs H237-mIgG1/MRAL-k0 | 5.3 nM | 39.6 fold vs H237-mIgG1/MRAL-k0
B5 | 571 nM | 0.5 fold vs H237-mIgG1/MRAL-k0 | 7.4 nM | 28.4 fold vs H237-mIgG1/MRAL-k0
B6 | 358 nM | 0.8 fold vs H237-mIgG1/MRAL-k0 | 4.81 nM | 43.7 fold vs H237-mIgG1/MRAL-k0
B7 | 331 nM | 0.9 fold vs H237-mIgG1/MRAL-k0 | 5.96 nM | 35.2 fold vs H237-mIgG1/MRAL-k0
B8 | 564 nM | 0.5 fold vs H237-mIgG1/MRAL-k0 | 7.38 nM | 28.4 fold vs H237-mIgG1/MRAL-k0
B9 | 445 nM | 0.6 fold vs H237-mIgG1/MRAL-k0 | 6.22 nM | 33.8 fold vs H237-mIgG1/MRAL-k0
B10 | 744 nM | 0.4 fold vs H237-mIgG1/MRAL-k0 | 9.77 nM | 21.5 fold vs H237-mIgG1/MRAL-k0
B11 | 133 nM | 2.1 fold vs H237-mIgG1/MRAL-k0 | 2.91 nM | 72.1 fold vs H237-mIgG1/MRAL-k0
B12 | 396 nM | 0.7 fold vs H237-mIgG1/MRAL-k0 | 6.15 nM | 34.2 fold vs H237-mIgG1/MRAL-k0
B13 | 436 nM | 0.6 fold vs H237-mIgG1/MRAL-k0 | 6.68 nM | 31.4 fold vs H237-mIgG1/MRAL-k0
B14 | 304 nM | 0.9 fold vs H237-mIgG1/MRAL-k0 | 4.8 nM | 43.8 fold vs H237-mIgG1/MRAL-k0
B15 | 300 nM | 0.9 fold vs H237-mIgG1/MRAL-k0 | 5.12 nM | 41 fold vs H237-mIgG1/MRAL-k0
B16 | 154 nM | 1.8 fold vs H237-mIgG1/MRAL-k0 | 3.44 nM | 61 fold vs H237-mIgG1/MRAL-k0
B17 | 500 nM | 0.6 fold vs H237-mIgG1/MRAL-k0 | 7.51 nM | 28 fold vs H237-mIgG1/MRAL-k0

Binder | Kd [1] | relative mFcγRIII-binding activity (mIgG1 = 1) [1] | Kd [2] | relative mFcγRII-binding activity (mIgG1 = 1) [2]
B18 | 311 nM | 0.9 fold vs H237-mIgG1/MRAL-k0 | 4.69 nM | 44.8 fold vs H237-mIgG1/MRAL-k0
B19 | 401 nM | 0.7 fold vs H237-mIgG1/MRAL-k0 | 8 nM | 26.3 fold vs H237-mIgG1/MRAL-k0
B20 | 575 nM | 0.5 fold vs H237-mIgG1/MRAL-k0 | 8.39 nM | 25 fold vs H237-mIgG1/MRAL-k0
B21 | 976 nM | 0.3 fold vs H237-mIgG1/MRAL-k0 | 12.4 nM | 17 fold vs H237-mIgG1/MRAL-k0
B22 | 269 nM | 1 fold vs H237-mIgG1/MRAL-k0 | 5.44 nM | 38.6 fold vs H237-mIgG1/MRAL-k0
B23 | 223 nM | 1.3 fold vs H237-mIgG1/MRAL-k0 | 3.39 nM | 62 fold vs H237-mIgG1/MRAL-k0
B24 | 313 nM | 0.9 fold vs H237-mIgG1/MRAL-k0 | 4.71 nM | 44.6 fold vs H237-mIgG1/MRAL-k0
B25 | 213 nM | 1.3 fold vs H237-mIgG1/MRAL-k0 | 4.81 nM | 43.7 fold vs H237-mIgG1/MRAL-k0
B26 | 630 nM | 0.4 fold vs H237-mIgG1/MRAL-k0 | 8.31 nM | 25.3 fold vs H237-mIgG1/MRAL-k0
B27 | 121 nM | 2.3 fold vs H237-mIgG1/MRAL-k0 | 2.58 nM | 81.3 fold vs H237-mIgG1/MRAL-k0
B28 | 1570 nM | 0.2 fold vs H237-mIgG1/MRAL-k0 | 16.2 nM | 13 fold vs H237-mIgG1/MRAL-k0
B29 | 142 nM | 2 fold vs H237-mIgG1/MRAL-k0 | 3.09 nM | 67.9 fold vs H237-mIgG1/MRAL-k0
B30 | 225 nM | 1.3 fold vs H237-mIgG1/MRAL-k0 | 4.15 nM | 50.6 fold vs H237-mIgG1/MRAL-k0
B31 | 308 nM | 0.9 fold vs H237-mIgG1/MRAL-k0 | 4.58 nM | 45.8 fold vs H237-mIgG1/MRAL-k0
B32 | 295 nM | 1 fold vs H237-mIgG1/MRAL-k0 | 4.79 nM | 43.8 fold vs H237-mIgG1/MRAL-k0
B33 | 329 nM | 0.9 fold vs H237-mIgG1/MRAL-k0 | 5.73 nM | 36.6 fold vs H237-mIgG1/MRAL-k0
